Results taken from patent publication US6855515B1, “Autoantigenic fragments, methods and assays” (Merck & Co., Inc., priority 1998, dated 2005).

B1: NOR-90: autoantigen (protein, UniProt P17480 1-764, looked up)
Nucleolar transcription …: MNGEADCPTDLEMAAPKGQDRWSQEDMLTLLECMKNNLPSNDSSKFKTTESHMDWEKVAFKDFSGDMCKLKWVEISNEVRKFRTLTELILDAQEHVKNPYKGKKLKKHPDFPKKPLTPYFRFFMEKRAKYAKLHPEMSNLDLTKILSKKYKELPEKKKMKYIQDFQREKQEFERNLARFREDHPDLIQNAKKSDIPEKPKTPQQLWYTHEKKVYLKVRPDATTKEVKDSLGKQWSQLSDKKRLKWIHKALEQRKEYEEIMRDYIQKHPELNISEEGITKSTLTKAERQLKDKFDGRPTKPPPNSYSLYCAELMANMKDVPSTERMVLCSQQWKLLSQKEKDAYHKKCDQKKKDYEVELLRFLESLPEEEQQRVLGEEKMLNINKKQATSPASKKPAQEGGKGGSEKPKRPVSAMFIFSEEKRRQLQEERPELSESELTRLLARMWNDLSEKKKAKYKAREAALKAQSERKPGGEREERGKLPESPKRAEEIWQQSVIGDYLARFKNDRVKALKAMEMTWNNMEKKEKLMWIKKAAEDQKRYERELSEMRAPPAATNSSKKMKFQGEPKKPPMNGYQKFSQELLSNGELNHLPLKERMVEIGSRWQRISQSQKEHYKKLAEEQQKQYKVHLDLWVKSLSPQDRAAYKEYISNKRKSMTKLRGPNPKSSRTTLQSKSESEEDDEEDEDDEDEDEEEEDDENGDSSEDGGDSSESSSEDESEDGDENEEDDEDEDDDEDDDEDEDNESEGSSSSSSSSGDSSDSDSN
B2: Histidyl tRNA synthetase (Jo-1): autoantigen targeted in autoimmune myositis (protein)
chain: AERAALEELVKLQGERVRGLKQQKASAELIEEEVAKLLKLKAQLGPDESKQKFVLKTPKGTRDYSPRQMAVREKVFDVIIRCFKRHGAEVIDTPVFELKETLMGKYGEDSKLIYDLKDQGGELLSLRYDLTVPFARYLAMNKLTNIKRYHIAKVYRRDNPAMTRGRYREFYQCDFDIAGNFDPMIPDAECLKIMCEILSSLQIGDFLVKVNDRRILDGMFAICGVSDSKFRTICSSVDKLDKVSWEEVKNEMVGEKGLAPEVADRIGDYVQQHGGVSLVEQLLQDPKLSQNKQALEGLGDLKLLFEYLTLFGIDDKISFDLSLARGLDYYTGVIYEAVLLQTPAQAGEEPLGVGSVAAGGRYDGLVGMFDPKGRKVPCVGLSIGVERIFSIVEQRLEALEEKIRTTETQVLVASAQKKLLEERLKLVSELWDAGIKAELLYKKNPKLLNQLQYCEEAGIPLVAIIGEQELKDGVIKLRSVTSREEVDVRREDLVEEIKRRTGQPLCIC
B3: Fibrilliarin: autoantigen (protein)
chain: MKPGFSPRGGGFGGRGGFGDRGGRGGRGGFGGGRGRGGGFRGRGRGGGGGGGGGGGGGRGGGGFHSGGNRGRGRGGKRGNQSGKNVMVEPHRHEGVFICRGKEDALVTKNLVPGESVYGEKRVSISEGDDKIEYRAWNPFRSKLAAAILGGVDQIHIKPGAKVLYLGAASGTTVSHVSDIVGPDGLVYAVEFSHRSGRDLINLAKKRTNIIPVIEDARHPHKYRMLIAMVDVIFADVAQPDQTRIVALNAHTFLRNGGHFVISIKANCIDSTASAEAVFASEVKKMQQENMKPQEQLTLEPYERDHAVVVGVYRPPPKVKN
B4: CENP B: autoantigen (protein)
chain: GPKRRQLTFREKSRIIQEVEENPDLRKGEIARRFNIPPSTLSTILKNKRAILASERKYGVASTCRKTNKLSPYDKLEGLLIAWFQQIRAAGLPVKGIILKEKALRIAEELGMDDFTASNGWLDRFRRRHGVVSCSGVARARARNAAPRTPAAPASPAAVPSEGSGGSTTGWRAREEQPPSVAEGYASQDVFSATETSLWYDFLPDQAAGLCGGDGRPRQATQRLSVLLCANADGSEKLPPLVAGKSAKPRAGQAGLPCDYTANSKGGVTTQALAKYLKALDTRMAAESRRVLLLAGRLAAQSLDTSGLRHVQLAFFPPGTVHPLERGVVQQVKGHYRQAMLLKAMAALEGQDPSGLQLGLTEALHFVAAAWQAVEPSDIAACFREAGFGGGPNATITTSLKSEGEEEEEEEEEEEEEEGEGEEEEEEGEEEEEEGGEGEELGEEEEVEEEGDVDSDEEEEEDEESSSEGLEAEDWAQGVVEAGGSFGAYGAQEEAQCPTLHFLEGGEDSDSDSEEEDDEEEDDEDEDDDDDEEDGDEVPVPSFGEAMAYFAMVKRYLTSFPIDDRVQSHILHLEHDLVHVTRKNHARQAGVRGLGHQS
B5: La: autoantigen (protein, UniProt P05455 1-408, looked up)
Lupus La protein: MAENGDNEKMAALEAKICHQIEYYFGDFNLPRDKFLKEQIKLDEGWVPLEIMIKFNRLNRLTTDFNVIVEALSKSKAELMEISEDKTKIRRSPSKPLPEVTDEYKNDVKNRSVYIKGFPTDATLDDIKEWLEDKGQVLNIQMRRTLHKAFKGSIFVVFDSIESAKKFVETPGQKYKETDLLILFKDDYFAKKNEERKQNKVEAKLRAKQEQEAKQKLEEDAEMKSLEEKIGCLLKFSGDLDDQTCREDLHILFSNHGEIKWIDFVRGAKEGIILFKEKAKEALGKAKDANNGNLQLRNKEVTWEVLEGEVEKEALKKIIEDQQESLNKWKSKGRRFKGKGKGNKAAQPGSGKGKVQFQGKKTKFASDDEHDEHDENGATGPVKRAREETDKEEPASKQQKTENGAGDQ
B6: Isoleucyl tRNA synthetase (O.J.): autoantigen targeted in autoimmune myositis (protein)
chain: MLQQVPENINFPAEEEKILEFWTEFNCFQECLKQSKHKPKFTFYDGPPFATGLPHYGHILAGTIKDIVTRYAHQSGFHVDRRFGWDCHGLPVEYEIDKTLGIRGPEDVAKMGITEYNNQCRAIVMRYSAEWKSTVSRLGRWIDFDNDYKTLYPQFMESVWWVFKQLYDKGLVYRGVKVMPFSTACNTPLSNFESHQNYKDVQDPSVFVTFPLEEDETVSLVAWTTTPWTLPSNLAVCVNPEMQYVKIKDVARGRLLILMEARLSALYKLESDYEILERFPGAYLKGKKYRPLFDYFLKCKENGAFTVLVDNYVKEEEGTGVVHQAPYFGAEDYRVCMDFNIIRKDSLPVCPVDASGCFTTEVTDFAGQYVKDADKSIIRTLKEQGRLLVATTFTHSYPFCWRSDTPLIYKAVPSWFVRVENMVDQLLRNNDLCYWVPELVREKRFGNWLKDARDWTISRNRYWGTPIPLWVSDDFEEVVCIGSVAELEELSGAKISDLHRESVDHLTIPSRCGKGSLHRISEVFDCWFESGSMPYAQVHYPFENKREFEDAFPADFIAEGIDQTRGWFYTLLVLATALFGQPPFKNVIVNGLVLASDGQKMSKRKKNYPDPVSIIQKYGADALRLYLINSPVVRAENLRFKEEGVRDVLKDVLLPWYNAYRFLIQNVLRLQKEEEIEFLYNENTVRESPNITDRWILSFMQSLIGFFETEMAAYRLYTVVPRLVKFVDILTNWYVRMNRRRLKGENGMEDCVMALETLFSVLLSLCRLMAPYTPFLTELMYQNLKVLIDPVSVQDKDTLSIHYLMLPRVREELIDKKTESAVSQMQSVIELGRVIRDRKTIPIKYPLKEIVVIHQDPEALKDIKSLEKYIIEELNVRKVTLSTDKNKYGIRLRAEPDHMVLGKRLKGAFKAVMTSIKQLSSEELEQFQKTGTIVVEGHELHDEDIRLMYTFDQATGGTAQFEAHSDAQALVLLDVTPDQSMVDEGMAREVINRIQKLRKKCNLVPTDEITVYYKAKSEGTYLNSVIESHTEFIFTTIKAPLKPYPVSPSDKVLIQEKTQLKGSELEITLTRGSSLPGPACAYVNLNICANGSEQGGVLLLENPKGDNRLDLLKLKSVVTSIFGVKNTELAVFHDETEIQNQTDLLSLSGKTLCVTAGSAPSLINSSSTLLCQYINLQLLNAKPQECLMGTVGTLLLENPLGQNGLTHQGLLYEAAKVFGLRSRKLKLFLNETQTQEITEDIPVKTLNMKTVYVSVLPTTADF
B7: Alanyl tRNA synthetase (PL-12): autoantigen targeted in autoimmune myositis (protein)
chain: MDSTLTASEIRQRFIDFFKRNEHTYVHSSATIPLDDPTLLFANAGMNQFKPIFLNTIDPSHPMAKLSRAANTQKCIRAGGKHNDLDDVGKDVYHHTFFEMLGSWSFGDYFKELACKMALELLTQEFGIPIERLYVTYFGGDEAAGLEADLECKQIWQNLGLDDTKILPGNMKDNFWEMGDTGPCGPCSEIHYDRIGGRDAAHLVNQDDPNVLEIWNLVFIQYNREADGILKPLPKKSIDTGMGLERLVSVLQNKMSNYDTDLFVPYFEAIQKGTGARPYTGKVGAEDADGIDMAYRVLADHARTITVALADGGRPDNTGRGYVLRRILRRAVRYAHEKLNASRGFFATLVDVVVQSLGDAFPELKKDPDMVKDIINEEEVQFLKTLSRGRRILDRKIQSLGDSKTIPGDTAWLLYDTYGFPVDLTGLIAEEKGLVVDMDGFEEERKLAQLKSQGKGAGGEDLIMLDIYAIEELRARGLEVTDDSPKYNYHLDSSGSYVFENTVATVMALRREKMFVEEVSTGQECGVVLDKTCFYAEQGGQIYDEGYLVKVDDSSEDKTEFTVKNAQVRGGYVLHIGTIYGDLKVGDQVWLFIDEPRRRPIMSNHTATHILNFALRSVLGEADQKGSLVAPDRLRFDFTAKGAMSTQQIKKAEEIANEMIEAAKAVYTQDCPLAAAKAIQGLRAVFDETYPDPVRVVSIGVPVSELLDDPSGPAGSLTSVEFCGGTHLRNSSHAGAFVIVTEEAIAKGIRRIVAVTGAEAQKALRKAESLKKCLSVMEAKVKAQTAPNKDVQREIADLGEALATAVIPQWQKDELRETLKSLKKVMDDLDRASKADVQKRVLEKTKQFIDSNPNQPLVILEMESGASAKALNEALKLFKMHSPQTSAMLFTVDNEAGKITCLCQVPQNAANRGLKASEWVQQVSGLMDGKGGGKDVSAQATGKNVGCLQEALQLATSFAQLRLGDVKN

Target: T1, granzyme B (Homo sapiens, UniProt P10144)
T1 construct: Some of these preparations were used for the further purification of granzyme B (Tschopp, 1994); endogenous in cells; host or cells: YT cells (human NK cell line), cytoplasmic granules
Test: Susceptibility of autoantigens to cleavage by purified granzyme B (HeLa lysate immunoblot or immunoprecipitates)
Type: biochemical
Conditions: in vitro
Procedure: To determine whether susceptibility to direct cleavage by granzyme B was an isolated feature of PARP, NuMA and DNA-PKcs shown above, or whether it was a more general feature of autoantigens, a variety of well-defined autoantigens selected from across the spectrum of systemic autoimmune diseases were tested for susceptibility to cleavage by purified granzyume B. The efficiency of cleavage of the substrates by purified granzyme B was also noted (Table 3). Initially, a series of autoantibodies of well-defined specificity were used to immunoblot lysates of HeLa cells that had been incubated in vitro with or without granzyme B. Lysates were pre-treated with iodoacetamide (IAA) to prevent interference by endogenous caspase activity.
To perform these studies, HeLa cells were radiolabeled with [^35S] methionine/cysteine, and proteins were immunoprecipitated using human autoantibodies. Protein A-agarose beads containing washed precipitated proteins were resuspended in buffer supporting the activity of granzyme B, and incubated in the absence or presence of added purified granzyme B. Reaction products were visualized using SDS-PAGE and fluorography. To confirm the validity of this approach, several different autoantigens known to be cleaved by granzyme B, as well as several autoantigens and non-autoantigens that are not cleaved by granzyme B, were tested. Using autoantibodies that both immunoblot and immunprecipitate, the cleavage profiles obtained using granzyme B to cleave molecules in lysates (followed by detection with immunoblotting), and after immunoprecipitation (from [^35S]methionine-labeled HeLa lysate) were compared. Identical results were obtained using these 2 methods for cleaved autoantigens (topoisomerase-1, Mi-2, RNA polymerase II large subunit, Ku-70, PARP, and NOR-90), uncleaved autoantigens (Ku-80, Ro 60k), and control substrates (β-tubulin, vinculin). […] Of note, all these additional autoantigens (with the exception of RNA polymerase I) are targeted in autoimmune myositis. However, two other tRNA synthetases (threonyl tRNA synthetase and glycyl tRNA synthetase) that are also autoantigens in autoimmune myositis, were not cleaved using this approach.

T1 sequence (P10144 21-247): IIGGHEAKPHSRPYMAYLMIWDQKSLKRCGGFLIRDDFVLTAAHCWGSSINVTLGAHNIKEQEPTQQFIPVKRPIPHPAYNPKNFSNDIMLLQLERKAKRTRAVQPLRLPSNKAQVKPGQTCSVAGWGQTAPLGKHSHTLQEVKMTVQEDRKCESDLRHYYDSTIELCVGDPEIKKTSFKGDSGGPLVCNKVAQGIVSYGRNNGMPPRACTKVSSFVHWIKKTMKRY

Molecule | susceptibility to cleavage by granzyme B
B1 | efficiently cleaved
B2 | cleaved
B3 | efficiently cleaved
B4 | efficiently cleaved
B5 | efficiently cleaved
B6 | cleaved
B7 | cleaved
